Test results taken from US20200116741A1 (University of California, published 2020).

Assays:
rhERFE2 = target: T1, rhERFE2 (human, UniProt Q4G0M1 29-354); assay: hybridoma supernatant screening; checkerboard sandwich testing
T1 construct: also called Recombinant hERFE2; recombinant human erythroferrone 2
T1 sequence: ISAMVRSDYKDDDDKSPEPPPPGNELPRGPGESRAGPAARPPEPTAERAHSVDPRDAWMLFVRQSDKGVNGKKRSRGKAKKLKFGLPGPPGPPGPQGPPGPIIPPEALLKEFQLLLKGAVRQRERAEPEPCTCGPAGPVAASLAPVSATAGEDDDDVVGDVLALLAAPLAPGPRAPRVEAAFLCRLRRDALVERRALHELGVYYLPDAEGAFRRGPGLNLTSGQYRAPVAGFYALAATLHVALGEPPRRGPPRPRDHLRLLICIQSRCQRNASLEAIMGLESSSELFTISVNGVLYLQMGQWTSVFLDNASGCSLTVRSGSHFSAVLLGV
Excerpt: Rabbit hybridomas were generated (custom order fulfilled by Abcam, Burlingame, Calif.) from rabbits immunized by rhERFE1 and boosted by rhERFE2. Hybridoma supernatants were selected for reactivity against rhERFE2. After biotinylation of Mabs (EZ-Link sulfo-NHS-LC-LC-Biotin kit, Thermo Fisher Scientific), optimal pair of unbiotinylated capture Mab and biotinylated detection Mab was chosen by checkerboard testing with rhERFE1 and rhERFE2. The cDNAs encoding the final Mab pair (#9 and #42) were cloned from the hybridomas and used to produce the Mabs recombinantly.

human erythroferrone [1] = target: T2, human erythroferrone (human, UniProt Q4G0M1 29-354); assay: sandwich ELISA on human serum, biotinylated Mab#42 as detection antibody
T2 construct: Native hormone in human serum, detected by the Mab#9 / Mab#42 sandwich ELISA; also called hERFE; serum hERFE
T2 sequence (looked up): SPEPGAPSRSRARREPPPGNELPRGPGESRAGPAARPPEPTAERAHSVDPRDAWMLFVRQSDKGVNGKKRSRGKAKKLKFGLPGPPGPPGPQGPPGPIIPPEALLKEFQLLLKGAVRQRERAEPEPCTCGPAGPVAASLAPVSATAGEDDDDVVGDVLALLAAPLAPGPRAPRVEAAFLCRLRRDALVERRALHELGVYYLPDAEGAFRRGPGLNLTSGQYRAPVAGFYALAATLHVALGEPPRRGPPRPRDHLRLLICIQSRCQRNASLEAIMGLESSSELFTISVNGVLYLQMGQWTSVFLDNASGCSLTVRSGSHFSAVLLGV
Protocol: (§1) 96-well high binding plates (Costar #3590) were coated with Mab#9 diluted to 1 μg/ml in sodium carbonate buffer (50 mM, pH 9.6), overnight at 4° C. Plates were washed 3-times with TB S-T (TBS +0.05% Tween 20) then blocked for 1 hour at room temperature with 200 µl/well Blocking Buffer (BB: PBS,0.2% Na casein, 0.05% Tween 20, 0.1M NaCl). Recombinant hERFE2 standard was first diluted to 1 μg/ml and then serially diluted in BB to 10, 5, 2.5, 1.25, and 0.625 ng/ml. After a 1 hour incubation at 25° C. in a 300 rpm shaker, the plate was washed 4-times with TBS-T, 10 seconds, 25° C., and 300 rpm per wash and incubated 1 hour at 25° C., 300 rpm in shaker with 100 μl/well biotinylated Mab#42 (1 μg/ml in BB). After incubation for 1 hour at 25° C., 300 rpm in shaker, the plate was washed 4-times as before, incubated for 45 minutes with Neutravidin-HRP conjugate (ThermoScientific #31030) 1/5000 (100 μl/well) washed again 3-times as before and developed with 100 μl TMB Substrate System for ELISA (ThermoScientific #34028) at room temperature in the dark for 10 minutes. The reaction was stopped by adding 50 μl of 2N sulfuric acid and the plates were read on a Spectramax 250 (Molecular Devices) at 450 nm.

rhERFE1 [2] = target: T3, rhERFE1 (human, UniProt Q4G0M1 29-354); assay: checkerboard sandwich ELISA, biotinylated detection antibody
T3 construct: The FLAG tag was mostly lost during cell culture; also called recombinant hERFE; recombinant human erythroferrone 1
T3 sequence: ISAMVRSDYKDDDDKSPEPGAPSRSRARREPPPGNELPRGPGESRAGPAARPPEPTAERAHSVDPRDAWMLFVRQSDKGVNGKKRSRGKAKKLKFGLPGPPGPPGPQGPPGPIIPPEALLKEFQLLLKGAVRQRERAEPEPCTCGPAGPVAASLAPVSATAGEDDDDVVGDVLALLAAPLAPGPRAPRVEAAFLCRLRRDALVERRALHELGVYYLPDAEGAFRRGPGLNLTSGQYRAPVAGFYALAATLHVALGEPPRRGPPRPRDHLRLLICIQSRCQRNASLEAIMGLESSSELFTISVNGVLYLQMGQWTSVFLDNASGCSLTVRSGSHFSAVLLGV

[3] = target: T4, peptide ELPRGPGESRAGPAARPP (human); assay: peptide epitope scanning
T4 peptide: ELPRGPGESRAGPAARPP

rhERFE1 [4] = target: T3, rhERFE1; assay: checkerboard sandwich ELISA, capture antibody
human erythroferrone [5] = target: T2, human erythroferrone; assay: sandwich ELISA on human serum, Mab#9 as capture antibody
Protocol: as §1

Measured: binding result

B1: Mab#42 (antibody, V domains shown)
VH: QSLEESGGRLVTPGGSLTLTCTVSGIDLSSYEMGWVRQAPGKGLEWIGVIGTDGTAVYATWVKGRFTISKTSTTVDLKMTSLTTEDTATYFCARDSSGNSNYRAFDPWGPGTLVTVSS
VL: AYDMTQTPASVEVAVGGTVTIKCQASQSIYSYLSWYQQKPGQPPKLLIYRASTLASGVPSRFKGSGSGTQFTLTISDLECADAATYYCQQGFVISNVLNSFGGGTEVVVKG
notes: Rabbit monoclonal from a hybridoma, later made recombinantly; also called rabbit monoclonal antibody #42; biotinylated detection Mab
binds: rhERFE2 | human erythroferrone [1] | rhERFE1 [2]

B2: Mab#9 (antibody, V domains shown)
VH: QSVEESGGRLVTPGTPLTLTCTVSGIDLNDNAMRWVRQAPGKGLEWIGVIYIDTSTYYASWAKGRFTISKTSSTTVDLKITSPTTEDTATYFCVREDGYRLGDVWGPGTLVTVSS
VL: ALVMTQTPSSVSAGVGGTVTINCQASQSLYNNNYLSWFQQKPGQPPKLLIYWASTLASGVPSRFSGSGSGTQFTLTISGVACDDAATYYCAGYKSSSNDDFAFGGGTEVVVKG
notes: Rabbit monoclonal from a hybridoma, later made recombinantly; Used unbiotinylated as the capture antibody in the ELISA; also called rabbit monoclonal antibody #9; capture Mab
binds: rhERFE2 | [3] | rhERFE1 [4] | human erythroferrone [5]
